Test results taken from the DeepSol protein solubility set.

Experiment: soluble on expression in E. coli; label from the status in PepcDB or PDB records

Sequence	soluble on expression in E. coli
MSANREKKKLETVIKNLEKKIEDQKANAGTKKKEAEQKENLRIEQEKIKKKKEQERLEVPPTPFDDLNSQSAKTLRVEKAIENLKFLGGKSTEFYRRVIGRLGKSGLFKWKMSKREGFYLYHACGLTRRKLRTLKAHFSKSGCSDPFPSVHEIMKIEKIVGAGEQFSVTEHDKDGEEVVAAHLVDVIKYLTDRIHHLIDNGNLVIGTDPIWLTILGDKGSDEFKLCLSIGNAKNPNSCCHLIPLGIFNDDEKSSNISNDLTPIVAQLNSLKELKLKVAGTDVTVPVQQFLGGDMKFQYDVLGHQGASSQFHCMFCNSLKSRLIGGYIRGANVTLRTAASYKENSGKDGNNYARKKSVSIRSRQSTKCDPRSLHTLMGLAQRFGFDYLILWAARIDNPTLTLTKTDIKRSKISKGRLNQLQESLKKLEKVVSGMETVQQVFQNYKNKRVDGRSCGETCHASICLFKDKKMKSAKGYDGRKVECNTCFQAVHAVCGGLWTLDDWELTISIFRENNRHLNELRSDLREKKSVIFSQGLKIDMLESQLSQRQTEFEYRSANAAANSFTRKDHGKLYHCFDIKNQDSTSVSDTMTCRCSMKPCVFYLDSLPAAKTPSLTQLRRIVVLMQQKPSQKIDPKEMLLMTSMHLPFPMQEPSTEYFNAISGCSTSYICVEEMGIGFSFRRHVEKLWMKNLPPATNGTDKAANDLKNQLKVRRNVGKHDRTSRYARKSHN	not soluble
SLETQQEGMDISSSLRKLGAQSKLIQTYIDQSLMSPNVQLEEVTALNTNQFLIKQDMKEWSSELYPQLILLNSKSKGFVTKFNSYYPTLKSFVDNKEDREGFSDRLEVLQEMAMTNQENTQRQINELTDLKLQLDKKLKDFDTNVATAQGILSTDGTGKIDQLKNEILNTKKAIQNDLQQIALIPGALNEQGFAIFKEVYSLSKEIIEPAAQAGVAAYNKGKEINNSILEAEKKAVQEATEQGKTALEIESAKKAAREAIEKSKQGEIAAAAAAKTQEYDLMKVIDTEKIKKTFGVFAEVNKLTAEQRAYLDDLEKQNQKIYDLTTKLSIADLQKSMLLLTQNDLHTFANQIDVELDLLKRYKEDLNLIKNSITKLSTNVDTTSEQSQKDTLRQLKNVISYLEEQVYKF	soluble
MQKPDESNEKHDIPCTSASLLDHLIQKEASAAEDTDPLDHIGNIGEAIIGQFSSGADVGTEILQNALKMFDQAMAYTNPQAPPKRKYKRKEAPIEDAQPTTTSSATLASLLTLNPVPIESSAKRFHQNDLRAGFSPRTKFDVDCSDFFLLQGSDADTQFNNLHKKLEKERTQMFDDQVSKDVERLLNTANRVHGPREWTAEEKAEFTSYCRSWRSGALGADDKLNLQKFYSKAYGKVFQGLSENKASSEESAIDFSNFMGVGSEDPANQTEDVPGGSCKASPDNFSFSTLNPRMKYEKEKEFRSAINNIFTEVFKEFHSKKQFIPKPTRLDVPPCEIEREHLSMLMSKFSIAMDDPEKEWNVDELQELRRFYTLFREKNHLPFVQTKEFGKFLRKAFGRLEHYELQRENDTSLQEKRKFWQEYRKTHVPPKRERKACAARTTPVRPYIKSNIDTKGETEEERRLRRAAYLRKWRLAQKEKHSADVMSQFKHQEDVAL	not soluble
MSISTEQTILTQLKTIRTKRASTTGEQKWLQQHITEANLRRLLPDISIVGLHLLSELEAGPQTGIDLATNLGVTRGGVTRAAKRLVTQGLIGSFQQPDDHKKIFYRLTPSGRKLARYHDKMHATRNHQAITLLHEHYSPAELAVIQRFLADLTDYEA	not soluble
MNKKIVMSFLAATVVTISGCASFADMAGADSATLNASAAQGFSKMTTEARQKGQLDTSSNTYRRINTVMQRMIPYANQMNQTGQPFQWQLAVIKSDTVNAYVAPGGKVVFYTGIVNKLNLSDAEIAAVMGHEMTHALEEHAKSKIGAEALTGLALNIGKAYAGDSIGQAGSAALDLGSQVGVGLPYSRNLESRADYGGLMLMAKAGYNPQAAITLWEKMNRMDGAGGPSFLSTHPSNNQRIQDMRKNLPAAMAVYNNRRLEHHHHHH	not soluble
MAGDPMTMRVCYRCGISEEEGGPLINGLCQVCFRKENPVLLLPSEINTELCQNCGSYKKRGVWIDPQNYELESLIFEVAENALLEALEESLDKVKEFEVVPWEELENINNIPVGKAFVGFIPVDYHIQYFPAVIVYRVRVKARLHELQLEPHDEIKETTVYVRQTVCPRCQRFLAGYYEAILQVRVEDREFTKEEREAVTKLVQEKVDEIMKKDRMGFIQDTIEKEEGIDFYMGSTSAARKLANVIREHFGGEISEAYELVGLDRMTSKEVYRTSVTVRLPKFRRGDIVEDRHGRIYKVENVSGKGMRLKNLETWESQHYDWKTIKREKIDKAEHEEKKALLISQTPREAQFMDMSTYETFEVLKPGVNLEEGQLYRLVKVKGRFYIKEKEGEELEHHHHHH	not soluble
MATQLLMPKATAVWLVDNTALTFDQIAEFCKLHVLEVKAIADGEAAYGIKGLDPISSGQLTRSEIARVEADKNARLKISQSKVHIPEKKRKGARYIPLSRRQDRPNGILWLVTNHPELKDAQIARLIGTTKGTIEQIRNRTHWNSANLVALDPVGLGLCLQIDLDIELKRAAKNRPLSNEEDKSLLPASVTENVAIHEKEHEQDFNKNFDADKVFAKLNALQKNRENDASTELEHHHHHH	soluble
MQILFNDQAMQCAAGQTVHELLEQLDQRQAGAALAINQQIVPREQWAQHIVQDGDQILLFQVIAGG	soluble
MGSDKIHHHHHHMTVNDYALVTGASGFLGSAVVRQALARGWRVRALVRATSPRANLDGLPVEVFEGDMRDPAALTSAMRGVRYLFHVAADYRLWAPDPEEIVRTNVDGTMAVMEAAQEAGVERVVYTSSVATLRVAGASAPVDETAAMTPHEAIGAYKRSKVLAERVVERMVAERGLPAVIVNPSTPIGPRDVRPTPTGRIIVEAATGKIPAFVETGLNLVHVDDVAAGHFQALERGRIGERYILGGDDVMLQQMLRDIADLCGRRPPTVQLPRWPLYPLAHAAEAVARITRKEPFVTVDGLHMSKYRMFFRSDKARQELGYQPRPYIDGLRDALDWFREAGYLR	not soluble
MGSDKIHHHHHHMKIAIVGSGNGAVTAAVDMVDKGHDVRLYCRNESISKFDVALEKGGFDFYNEGEEKFIEFTDISDDMEYVLDGADIVQVIIPSSFIEYYAKVMSKFVTNDHLIFFNIAASMGSIRFMNVLEDRHIDVHPHFAEANTLTYGTRVDFNNAKVDLSLNVRRVFFSTFDRSELNESYEKVSKIYDYLVKEESLLKTNLENGNPEVHPGPTLLNVGRIDYSEEFSLYKEGITKHTVRLLHAIEIERLNLGRKLGFELSTAKESRIQRGYLERKDEDEPLNRLFNTSPVFSQIPGPNHVENRYLTEDIAYGLVLWSSLGRVIDVPTPNIDAVIMIASTILERDFFEEGLTIEELGLDKLGLE	not soluble
MSLQISPETQLFIREHQTDDVRALALQARKYPNVDMPTAITQIAGRQVAAEKIPSWRDTDDIWYPKHLSLEQCSSEVTARYKATLLKGNSLTDLTGGFGIDCAFLAARFKSATYVERQQELCEIAAHNFPILNLNHINVKNEDGVSYLQAMSPVDCIFLDPARRNEHGGKTVAISDCEPDVAELEELLLNKAEQVMVKLSPMLDLSLALKELQHVQEVHIISANNECKELLLILGQASAEEISIHCVNLPTRGAQEEQHFVFTREQEQCSECNYTDTLENYLYEPNASLLKAGAFRSIASAFPVKKLHPNSHLYTSDVLVESFPGRAFHIISQCSLNKKELKESLGDLKKANITVRNFPATVAELRKRIKLSEGGDTYLFASTLNNGQKVLIRCEKAEGHHHHHH	soluble
GSEKRQHSSQDVHVVLKLWKSGFSLDNGELRSYQDPSNAQFLESIRRGEVPAELRRLAHGGQVNLDMEDHRDEDFVKPKGAFKAFTGEGQKLGSTAPQVLST	soluble
MKALLSIEMDMQVPFHDVDSMGITWHGNYLRYFEVARCKLLDELGYNYRQMRASNYAWPIIDVQIKYVKPSTFEQHITVRAELVEWENRLKINYQIRDTATGERITKGYTIQAAVDMTSLEHHHHHH	not soluble
MNFETVIGLEVHVELKTKSKIFSSSPNAFGAPPNTQTNVIDLGYPGVLPVLNRQAVEFAMKAAMALNCEIATETKFDRKNYFYPDNPKAYQISQYDQPLGKNGWIEIEVNGKKKKIGITRIHLEEDAGKLTHTGDGYSLVDFNRQGTPLIEIVSEPDIRSPEEAYAYLEKLKAIIQYTGVSDCKMEEGSLRCDANISLRPIGSDKFGTKTELKNLNSFNFVRMGLEYEAKRQEKILLSGGVIRQETRRFDEATKTTVLMRVKEGSEDYRYFPEPDLVMLYIDDEWKERVRASIPELPDARRKRYIEEWGLPEYDAKVLTLTKEMADFFEATVANGADPKLASNWLMVEVSGYLNAEQKELHDIALTPESLAGMIKLIQDGTISSKIAKKVFKELVEHGGDPERIVKEKGLVQISDEGALRKIVLEVLDANPQSVEDYKNGKDRALGFLVGQVMKATKGQANPPLVNKLLVEEIGKR	not soluble
MDITNIKEMNYEEVFSITITVDKPILIGQDDIVGRRQLIPIISGKVSGNNFNGKVLPGGIDSQIVRPDGKCELSARYAIRLDDGAAIYIENNGIRTVPDEYIEAVKSGEFVDPNAYYFRTIPTFETYSPKYKWMMNHIFVCCASRLPENVLLKFYKIS	soluble
GRAPRNGEKVLVEFVSANPTGPLHVGHARQAALGDAICRLYDASGWDVTREFYYNDAGNQIDNLAISVQARGRGIAPDAPDYPTDGYKGDYIVEIARDFAARKSVQASDGQPVTATGDLDSLDDIRAFAVAYLRREQDLDLQAFGLAFDNYFLESSLYASGRVQETVDTLVAKGHTYEEGGALWLRTTELGTGDDKDRVMRKSEGGYTYFVPDVAYHKVKWERGFHHAVNIQGSDHHGTVARVRAGLQGLEAGIPKDFPAYVLHKMVKVMRGGEEVKISKRAGSYVTMRDLIDWVGRDAVRYFLIQRRADTEFVFDIDLALSKSDENPVYYIQYAHARICTMIGNSGA	not soluble
SNAMAWVVNKQSTQEELANRFRALVEANEILQIPGAHDAMAALVARNTGFLALYLSGAAYTASKGLPDLGIVTSTEVAERARDLVRATDLPVLVDIDTGFGGVLNVARTAVEMVEAKVAAVQIEDQQLPKKCGHLNGKKLVTTEELVQKIKAIKEVAPSLYIVARTDARGVEGLDEAIERANAYVKAGADAIFPEALQSEEEFRLFNSKVNAPLLANMTEFGKTPYYSAEEFANMGFQMVIYPVTSLRVAAKAYENVFTLIKETGSQKDALSNMQTRSELYETISYHDFEELDTGIAKTVLSEDQ	soluble
RAKGRFFYDKTSSQQPAIIVLSGSDGRIEKAQNIAQLLASHGFTTLALAYFGLEGLASHLEKIPLEIIQEAIDYLKKSPYADSIRLGLYGRSKGAEFALLAASHYADFKCLVLNSPSYLCLEGLKQWRNSKTSSWTYQGQELPYHPFLWKDFFQRLILKKDLKNINHQAVIPVEKINGSLLLLVSKKDEVWDAYGSAITIVNRLQQKRFKYPYQVESYENCGHMMTVAYQPNHRYKKVALEKIMADTNDSWQKTL	not soluble
MTQPDRGKDRAGRRTKRFLTPSEKYEIWLQLVRQEVTIAEAAEQQQVDRSTIMRIRTVAKEGALAALAASKPGVAAAQRDYEMEAAKAEIARLSEAVKQMAVKLTLVEGKGGWA	not soluble
